Data on three substances can be found in patent US20200207869A1.

One may read the koff as the first-order rate constant of dissociation.

Assay [1] addresses purified recombinant human VWF (human) (UniProt P04275). As to the kind of experiment: BLI (Octet-QK), rhVWF immobilized, FVIII 1.4 nM, single exponential decay. (In general: In BLI a coated tip is dipped into the sample, and binding shifts an interference pattern.)
Assay [2] shares this target. As to the kind of experiment: BLI (Octet-QK), rhVWF immobilized, FVIII 3.5 nM, single exponential decay.
Assay [3] deals with VWF in the plasma of the mice (endogenous murine VWF) (murine) (UniProt Q8CIZ8). As to the kind of experiment: sandwich ELISA of mouse plasma, anti-VWF capture, anti-FVIII detection; reference arbitrarily set as 100%.
The target is the same in assay [4]. The assay can be described thus: sandwich ELISA of mouse plasma, anti-VWF capture, anti-FVIII detection. For orientation: An ELISA detects its analyte on a solid surface through an enzyme-linked reagent.

On to “purified recombinant full-length factor VIII (Kogenate), P00451 20-2351”, for which the dissociation rate constant (koff) is 0.003 s⁻¹ in assay [1] and 0.0022 s⁻¹ in assay [2].

Substance “wild-type B-domainless FVIII (WT-FVIII-SQ) (from UniProt P00451 20-2351)” displayed a VWF-FVIII complex relative to WT-FVIII-SQ in assay [3] of 100%.

“B-domainless FVIII containing a Tyr to Phe replacement at position 1680 (FVIII-SQ/p.Y1680F) (from UniProt P00451 20-2351)” gave a VWF-FVIII complex relative to WT-FVIII-SQ in assay [4] of 8%.
